The source of these data is PMC10333338, “Mechanism of ATP hydrolysis dependent rotation of bacterial ATP synthase” (Nature Communications, 2023).

The test addresses T1, α subunit of the F1 domain of FoF1 ATP synthase from Geobacillus stearothermophilus (Bacillus PS3 sp.) (G. stearothermophilus (Bacillus PS3 sp.), UniProt P09219 1-502).
T1 construct: ATP synthase subunit alpha, Bacillus PS3 sp; (G. stearothermophilus); subunit of the ΔεCT-FoF1 complex; Three copies stand in the F1 domain (α3β3γ); The complex was purified on Ni-NTA; also called αE; αT
Put plainly: cryo-EM structure; purified ΔεCT-FoF1 in DDM, 9 µM enzyme; 26 mM ATP-Mg, 20 s at 25 °C (high [ATP], nucleotide-depleted enzyme) or 25 µM ATP with pyruvate kinase and PEP, 60 s at 25 °C (low [ATP]); flash frozen; focused refinement on the F1 domain. Particulars: both partners purified.

T1 sequence (P09219 whole entry, the tested form may be a part): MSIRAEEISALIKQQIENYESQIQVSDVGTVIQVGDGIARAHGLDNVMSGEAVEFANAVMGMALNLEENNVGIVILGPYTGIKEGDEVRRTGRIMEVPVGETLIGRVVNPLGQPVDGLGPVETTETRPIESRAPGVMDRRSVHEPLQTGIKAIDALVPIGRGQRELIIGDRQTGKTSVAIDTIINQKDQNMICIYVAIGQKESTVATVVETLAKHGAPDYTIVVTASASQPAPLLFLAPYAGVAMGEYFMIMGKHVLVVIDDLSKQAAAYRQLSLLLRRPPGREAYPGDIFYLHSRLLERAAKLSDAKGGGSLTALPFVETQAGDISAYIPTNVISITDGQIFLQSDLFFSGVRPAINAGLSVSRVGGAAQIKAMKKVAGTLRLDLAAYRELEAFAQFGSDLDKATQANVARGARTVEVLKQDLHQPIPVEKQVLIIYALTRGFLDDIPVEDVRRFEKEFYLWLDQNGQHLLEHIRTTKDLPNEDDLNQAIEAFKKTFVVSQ

B1: γ subunit of the F1 domain of FoF1 ATP synthase from Geobacillus stearothermophilus (Bacillus PS3 sp.) (natural protein, G. stearothermophilus (Bacillus PS3 sp.), UniProt P09222 5-286, looked up)
chain: ASLRDIKTRINATKKTSQITKAMEMVLTSKLNRAEKREIVRPYMEKIQEVVANVALAARASHPMLVSRPVKKTGYLVITSDRGLAGAYNSNVLRLVYQTIQKRHASPDEYAIIVIGRVGLSFFRKRNMPVILDITRLPDQPSFADIKEIARKTVGLFADGTFDELYMYYNHYVSAIQQEVTERKLLPLTDLAENKQRTVYEFEPSQEEILDVLLPQYAESLIYGALLDAKASEHAARMTAMKNATDNANELIRTLTLSYNRARQAAITQEITEIVAGANALQ
notes: ATP synthase gamma chain, Bacillus PS3 sp; (G. stearothermophilus); subunit of the ΔεCT-FoF1 complex; One copy in the centre of α3β3; also called γ-stalk; central γ subunit
In the case of B1, the binding result is recorded as “binds”.
